Measured values reported in PMC9273615, “Regulation of AUXIN RESPONSE FACTOR condensation and nucleo-cytoplasmic partitioning” (Nature Communications, 2022).

Experiments:
[1] = target: T1, GST-AFF1 (AUXIN RESPONSE FACTOR F-BOX1, At3g49150) (Arabidopsis thaliana, UniProt Q9M3B7 1-630); assay: pull-down; 2 μg GST fusion immobilised on glutathione agarose, mixed with 2 μg His-ASK1, 4 °C, 2 hr; six washes; immunoblot with anti-His and anti-GST; conditions: both partners purified
T1 construct: AUXIN RESPONSE FACTOR F-BOX1 (AFF1), F-box protein encoded by At3g49150, Arabidopsis thaliana; also called GST-AFF1 recombinant protein; not shown: GST, N-terminal, kept
T1 sequence (looked up): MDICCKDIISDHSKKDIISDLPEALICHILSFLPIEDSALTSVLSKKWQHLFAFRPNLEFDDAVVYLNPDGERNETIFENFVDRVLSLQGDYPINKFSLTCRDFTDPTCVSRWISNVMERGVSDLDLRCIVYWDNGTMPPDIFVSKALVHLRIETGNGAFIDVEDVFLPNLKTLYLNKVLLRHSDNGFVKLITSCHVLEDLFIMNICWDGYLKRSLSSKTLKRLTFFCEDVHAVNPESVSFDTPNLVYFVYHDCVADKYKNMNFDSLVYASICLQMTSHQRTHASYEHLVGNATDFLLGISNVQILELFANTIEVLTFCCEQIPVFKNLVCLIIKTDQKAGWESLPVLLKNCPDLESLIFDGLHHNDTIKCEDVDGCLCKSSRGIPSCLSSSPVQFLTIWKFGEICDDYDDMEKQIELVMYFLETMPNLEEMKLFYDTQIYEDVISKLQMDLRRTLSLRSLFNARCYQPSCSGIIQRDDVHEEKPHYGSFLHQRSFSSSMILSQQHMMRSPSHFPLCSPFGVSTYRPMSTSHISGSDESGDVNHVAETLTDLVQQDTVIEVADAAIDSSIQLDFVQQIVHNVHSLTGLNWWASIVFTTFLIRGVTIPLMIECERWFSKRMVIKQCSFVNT

[2] = target: T2, GST-AFF1 (AUXIN RESPONSE FACTOR F-BOX1, At3g49150) (Arabidopsis thaliana (Mouse-ear cress), UniProt Q9M3B7); assay: GST pull-down with immunoblot
T2 chain: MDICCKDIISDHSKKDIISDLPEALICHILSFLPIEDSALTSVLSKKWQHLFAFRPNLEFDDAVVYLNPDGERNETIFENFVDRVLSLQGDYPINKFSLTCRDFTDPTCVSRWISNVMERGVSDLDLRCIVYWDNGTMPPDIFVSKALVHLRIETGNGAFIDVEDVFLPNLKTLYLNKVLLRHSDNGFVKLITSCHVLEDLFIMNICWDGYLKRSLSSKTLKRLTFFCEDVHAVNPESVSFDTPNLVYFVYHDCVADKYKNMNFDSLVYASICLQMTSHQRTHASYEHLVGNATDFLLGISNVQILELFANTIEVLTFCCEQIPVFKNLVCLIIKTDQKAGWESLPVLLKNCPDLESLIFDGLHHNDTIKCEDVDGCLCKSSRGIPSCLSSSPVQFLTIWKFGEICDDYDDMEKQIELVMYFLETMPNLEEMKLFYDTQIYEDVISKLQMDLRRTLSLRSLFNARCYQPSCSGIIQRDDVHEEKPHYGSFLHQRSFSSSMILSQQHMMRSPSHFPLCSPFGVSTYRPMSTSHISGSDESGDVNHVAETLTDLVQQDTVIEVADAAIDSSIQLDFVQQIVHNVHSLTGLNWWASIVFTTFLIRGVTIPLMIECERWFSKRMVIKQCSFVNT

binding result [1]: binds | binding result [2]: binds
B1: His-ASK1 (ARABIDOPSIS SKP1-LIKE 1) (natural protein, UniProt Q39255 1-160, looked up)
chain: MSAKKIVLKSSDGESFEVEEAVALESQTIAHMVEDDCVDNGVPLPNVTSKILAKVIEYCKRHVEAAASKAEAVEGAATSDDDLKAWDADFMKIDQATLFELILAANYLNIKNLLDLTCQTVADMIKGKTPEEIRTTFNIKNDFTPEEEEEVRRENQWAFE
notes: ARABIDOPSIS SKP1-LIKE (ASK1), Arabidopsis thaliana; not shown: His, N-terminal, kept
